Experiments:
Assay in all cases: cell-based or functional assay
[1] = biological target: Env of HIV isolate WITO.33 (clade B) (HIV)
[2] = biological target: Env of HIV isolate BS208.B1 (clade A) (HIV)
[3] = biological target: Env of HIV isolate CNE53 (clade C in Table 7) (HIV)
[4] = biological target: Env of HIV isolate C1080.c3 (clade AE) (HIV)
[5] = biological target: Env of HIV isolate P0402.c2.11 (clade G) (HIV)
[6] = biological target: HIV Env of isolate 6631.v3.c10 (HIV)
[7] = biological target: Env of HIV isolate C3347.c11 (clade AE) (HIV)
[8] = biological target: Env of HIV isolate QH209.14M.A2 (clade A) (HIV)
[9] = biological target: Env of HIV isolate DU172.17 (clade C) (HIV)
[10] = biological target: Env of HIV isolate 0013095-2.11 (clade C) (HIV)
[11] = biological target: HIV Env of isolate ZA012.29 (HIV)
[12] = biological target: HIV Env of isolate CNE19 (HIV)
[13] = biological target: HIV Env of isolate ZM197.7 (HIV)
[14] = biological target: Env of HIV isolate CM244.ec1 (clade AE) (HIV)
[15] = biological target: Env of HIV isolate 286.36 (clade C) (HIV)
[16] = biological target: HIV Env of isolate 16055-2.3 (HIV)
[17] = biological target: Env of HIV isolate CNE56 (clade AE) (HIV)
[18] = biological target: HIV Env of isolate P1981.C5.3 (HIV)
[19] = biological target: Env of HIV isolate 26191-2.48 (clade C) (HIV)
[20] = biological target: Env of HIV isolate X2088.c9 (clade G) (HIV)
[21] = biological target: Env of HIV isolate 16055-2.3 (clade C) (HIV)
[22] = biological target: Env of HIV isolate CNE14 (clade B) (HIV)
[23] = biological target: Env of HIV isolate CAP210.E8 (clade C) (HIV)
[24] = biological target: Env of HIV isolate ZA012.29 (clade C) (HIV)
[25] = biological target: Env of HIV isolate BL01.DG (clade B) (HIV)
[26] = biological target: Env of HIV isolate Q259.17 (clade A) (HIV)
[27] = biological target: Env of HIV isolate C2101.c1 (clade AE) (HIV)
[28] = biological target: Env of HIV isolate Q168.a2 (clade AD) (HIV)
[29] = biological target: HIV Env of isolate MW965.26 (HIV)
[30] = biological target: Env of HIV isolate YU2.DG (clade B) (HIV)
[31] = biological target: HIV Env of isolate 00836-2.5 (HIV)
[32] = biological target: Env of HIV isolate ZM53.12 (clade C) (HIV)
[33] = biological target: Env of HIV isolate 3637.v5.c3 (clade C) (HIV)
[34] = biological target: Env of HIV isolate BJOX002000.03.2 (clade BC) (HIV)
[35] = biological target: HIV Env of isolate 0077.v1.c16 (HIV)
[36] = biological target: HIV Env of isolate 26191-2.48 (HIV)
[37] = biological target: HIV Env of isolate UG024.2 (HIV)
[38] = biological target: Env of HIV isolate CNE12 (clade B) (HIV)
[39] = biological target: Env of HIV isolate TH966.8 (clade AE) (HIV)
[40] = biological target: Env of HIV isolate UG021.16 (clade D) (HIV)
[41] = biological target: HIV Env of isolate 231965.c01 (HIV)
[42] = biological target: HIV Env of isolate X1632.S2.B10 (HIV)
[43] = biological target: Env of HIV isolate M02138 (clade AE) (HIV)
[44] = biological target: Env of HIV isolate CNE8 (clade AE) (HIV)
[45] = biological target: Env of HIV isolate X1193.c1 (clade G) (HIV)
[46] = biological target: Env of HIV isolate Q769.h5 (clade A) (HIV)
[47] = biological target: Env of HIV isolate 0260.v5.c36 (clade A) (HIV)
[48] = biological target: HIV Env of isolate TZBD.02 (HIV)
[49] = biological target: Env of HIV isolate CH117.4 (clade BC) (HIV)
[50] = biological target: Env of HIV isolate MI369.A5 (clade A) (HIV)

B1: ePGT121.18 (ePGT121.18.H1 VH and ePGT121.17.L1 VL) (antibody, V domains shown)
VH: QMQLQESGPGLVKPGETLSLTCSVSGASISSSYWSWLRETPGKGLEWIGYTHHSGDTNYAPSLKSRVHLGLHPSKNQVSLSLTSVTAADTAVYYCARTLHGRRIYGVVAFNEYYTYFYWPTWGKGTQVTVSS
VL: SDISVAPGETVRITCGGESIGSRAVQWYQHRPGQAPRLIIYNNQDRPPGIPERFSGSPDIDFGTTATLTISNVEAGDEATYYCHIWDSRRPTNWELGPGTTLTVL
**Q.** What does the source list for B1?
**A.** IC50, pseudovirus neutralization [1]: 4 ng/mL; IC50, pseudovirus neutralization [2]: > 50000 ng/mL; IC50, pseudovirus neutralization [3]: 3 ng/mL; IC50, pseudovirus neutralization [4]: > 50000 ng/mL; IC50, pseudovirus neutralization [5]: 2 ng/mL; IC80, pseudovirus neutralization (M1) [6]: 40 ng/mL; IC80, pseudovirus neutralization (M2) [6]: 44 ng/mL; IC50, pseudovirus neutralization [7]: > 50000 ng/mL; IC50, pseudovirus neutralization [8]: > 50000 ng/mL; IC50, pseudovirus neutralization [9]: 3 ng/mL; IC50, pseudovirus neutralization [10]: 537 ng/mL; IC80, pseudovirus neutralization (M1) [11]: 6 ng/mL; IC80, pseudovirus neutralization (M2) [11]: 7 ng/mL; IC80, pseudovirus neutralization (M1) [12]: 6 ng/mL; IC80, pseudovirus neutralization (M2) [12]: 4 ng/mL; IC80, pseudovirus neutralization (M1) [13]: > 50000 ng/mL; IC80, pseudovirus neutralization (M2) [13]: > 50000 ng/mL; IC50, pseudovirus neutralization [14]: 460 ng/mL; IC50, pseudovirus neutralization [15]: 1 ng/mL; IC80, pseudovirus neutralization (M1) [16]: 89 ng/mL; IC80, pseudovirus neutralization (M2) [16]: 59 ng/mL; IC50, pseudovirus neutralization [17]: > 50000 ng/mL; IC80, pseudovirus neutralization (M1) [18]: 3 ng/mL; IC80, pseudovirus neutralization (M2) [18]: 3 ng/mL; IC50, pseudovirus neutralization [19]: 3 ng/mL; IC50, pseudovirus neutralization [20]: 2 ng/mL; IC50, pseudovirus neutralization [21]: 11 ng/mL; IC50, pseudovirus neutralization [22]: 1 ng/mL; IC50, pseudovirus neutralization [23]: 20 ng/mL; IC50, pseudovirus neutralization [24]: 2 ng/mL; IC50, pseudovirus neutralization [25]: 6910 ng/mL; IC50, pseudovirus neutralization [26]: > 50000 ng/mL; IC50, pseudovirus neutralization [27]: > 50000 ng/mL; IC50, pseudovirus neutralization [28]: 2930 ng/mL; IC80, pseudovirus neutralization (M1) [29]: 6 ng/mL; IC80, pseudovirus neutralization (M2) [29]: 4 ng/mL; IC50, pseudovirus neutralization [30]: 3 ng/mL; IC80, pseudovirus neutralization (M1) [31]: > 50000 ng/mL; IC80, pseudovirus neutralization (M2) [31]: > 50000 ng/mL; IC50, pseudovirus neutralization [32]: 3 ng/mL; IC50, pseudovirus neutralization [33]: > 50000 ng/mL; IC50, pseudovirus neutralization [34]: 2 ng/mL; IC80, pseudovirus neutralization (M1) [35]: > 50000 ng/mL; IC80, pseudovirus neutralization (M2) [35]: > 50000 ng/mL; IC80, pseudovirus neutralization (M1) [36]: 8 ng/mL; IC80, pseudovirus neutralization (M2) [36]: 13 ng/mL; IC80, pseudovirus neutralization (M1) [37]: > 50000 ng/mL; IC80, pseudovirus neutralization (M2) [37]: > 50000 ng/mL; IC50, pseudovirus neutralization [38]: 2 ng/mL; IC50, pseudovirus neutralization [39]: > 50000 ng/mL; IC50, pseudovirus neutralization [40]: 6 ng/mL; IC80, pseudovirus neutralization (M1) [41]: > 50000 ng/mL; IC80, pseudovirus neutralization (M2) [41]: > 50000 ng/mL; IC80, pseudovirus neutralization (M1) [42]: > 50000 ng/mL; IC80, pseudovirus neutralization (M2) [42]: > 50000 ng/mL; IC50, pseudovirus neutralization [43]: > 50000 ng/mL; IC50, pseudovirus neutralization [44]: > 50000 ng/mL; IC50, pseudovirus neutralization [45]: 2 ng/mL; IC50, pseudovirus neutralization [46]: > 50000 ng/mL; IC50, pseudovirus neutralization [47]: 2 ng/mL; IC80, pseudovirus neutralization (M1) [48]: 4 ng/mL; IC80, pseudovirus neutralization (M2) [48]: 6 ng/mL; IC50, pseudovirus neutralization [49]: > 50000 ng/mL; IC50, pseudovirus neutralization [50]: 2 ng/mL

B2: ePGT121.15.H2.L1 (antibody, V domains shown)
VH: QMQLQESGPGLVKPGETLSLTCSVSGASISSSYWSWLRETPGKGLEWIGYTHHSGDTNYAPSLKSRVHLGLHPSKNQVSLSLTSVTAADTAVYYCARTLHGRRIYGVVAFNEWFTYFYWEVWGKGTQVTVSS
VL: SDISVAPGETVRISCGGESIGSRAVQWYQHRAGQAPKLIIYNNQDRPPGIPERFSGSPDIDFGTTATLTITNVEAGDEATYYCHIWDSRRPTNWVFGGGTTLTVL
**Q.** Which results are given for B2?
**A.** neutralization (Table 6 value) [12]: 0.000602; neutralization (Table 6 value) [41]: 0.285

Reference: patent US20210292396A1
